One assay concerns the target L-SIGN-7 (human) (UniProt Q9H2X3). Briefly: HCVpp supernatant on HeLa-SIGN transfectants, cell-bound p24 by ELISA.
For assay [1], the target named is L-SIGN-9 (human). As to the kind of experiment: flow cytometry, E2 at 5 µg/ml; lower end tied to L-SIGN-9 by the words L-SIGN-9 cells showing the lowest levels of binding. Background: In flow cytometry, cells or beads pass a laser one at a time.
Assay [2] deals with L-SIGN-9 (human). As to the kind of experiment: flow cytometry on HeLa-SIGN transfectants.
Assay [3] has as its target HeLa-SIGN transfectants (L-SIGN isoforms tested). Briefly: flow cytometry, E2 at 5 µg/ml; upper end not tied to an isoform.

Data on 2 substances can be found in patent US20060292151A1, “L-SIGN polymorphisms and methods involving use of same” (priority 2004, published 2006).

L-SIGN-7 (human), sequence (Q9H2X3 whole entry): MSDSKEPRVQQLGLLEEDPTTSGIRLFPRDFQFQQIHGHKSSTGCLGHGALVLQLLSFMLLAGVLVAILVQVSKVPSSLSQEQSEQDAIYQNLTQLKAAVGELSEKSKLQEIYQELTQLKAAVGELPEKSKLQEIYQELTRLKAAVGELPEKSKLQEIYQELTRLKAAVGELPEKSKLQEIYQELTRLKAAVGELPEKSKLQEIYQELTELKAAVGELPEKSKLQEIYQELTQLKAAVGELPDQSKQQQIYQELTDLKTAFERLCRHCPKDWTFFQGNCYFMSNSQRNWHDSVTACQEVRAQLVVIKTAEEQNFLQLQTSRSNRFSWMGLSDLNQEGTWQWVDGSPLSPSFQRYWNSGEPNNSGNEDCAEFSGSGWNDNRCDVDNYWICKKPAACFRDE

Turning to “HCV pseudovirus particles (HCVpp) (from UniProt P27958 192-383; P27958 384-746) (other; other documents disagree on this pair)”, the fold higher binding than to the other isoforms with L-SIGN-7 (human) is 2 fold.
Turning to soluble E2 glycoprotein, in the assay with L-SIGN-9 (human) [1], the fold above background binding to parental HeLa came out at 9 fold and the specific binding, percent of cells was 35 % of cells. This substance showed a fold lower binding than the other isoforms with L-SIGN-9 (human) [2] of 2 to 3 fold. Besides, in assay [3], the fold above background binding to parental HeLa is 25 fold and the specific binding, percent of cells was 93 % of cells.
